Measurements published in patent publication US20120322122, “COMPOSITIONS AND METHODS FOR IMPROVED PLANT FEEDSTOCK” (published 2012).

What was measured:
PvMYB4a [1] = target: T1, PvMYB4a (Panicum virgatum); test: EMSA; 5 mM MgCl2, 50 mM KCl, pH 7.5, 4 C; conditions: tags: N-terminal His (pDEST17), E. coli BL21 DE3; label: biotin
T1 chain: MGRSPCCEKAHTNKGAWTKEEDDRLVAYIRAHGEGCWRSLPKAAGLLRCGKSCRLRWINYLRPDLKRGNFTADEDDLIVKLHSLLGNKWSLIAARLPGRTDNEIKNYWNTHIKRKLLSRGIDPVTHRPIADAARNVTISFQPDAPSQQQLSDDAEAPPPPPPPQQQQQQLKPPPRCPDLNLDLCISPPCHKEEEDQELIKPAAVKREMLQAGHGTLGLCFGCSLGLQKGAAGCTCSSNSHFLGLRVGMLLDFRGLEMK
Experimental: The present and previous studies indicate that subfamily 4 MYB proteins directly bind the AC cis-elements in downstream monolignol biosynthesis gene promoters (Legay et al., 2007; Sonbol et al., 2009). […] Gel shift assays were performed to test for possible direct binding of PvMYB4 to different AtGA20-ox2 promoter regions in vitro. Analysis of the AtGA20-ox2 promoter 1500 bp upstream of the transcription start site identified an AC-II (−1200 bp) and an AC-IV (−150 bp) element. […] This is consistent with the direct binding of PvMYB4 to the synthetic AC-II elements (FIG. 4F). Binding of PvMYB4 to the AC elements in the GA20-ox promoter appears to inhibit expression of the gene.
PvMYB4a was cloned into the pDEST17 expression vector by the Gateway cloning method (Invitrogen). After sequencing, the plasmid was transformed into BL21 DE3 E. coli competent cells. IPTG was added to induce expression of PvMYB4. The recombinant protein was purified with the MagneHis™ Protein Purification System (Promega Corporation, Madison, Wis.) then concentrated with an Amicon Ultra-15 Centrifugal Filter (Millipore Corporation, Billerica, Mass.). About 700-1000 ng of purified PvMYB4 protein was used for EMSA in each reaction. […] The DNA was transferred onto Nylon membranes and signal detected with a LightShift® Chemiluminescent EMSA Kit (Thermo Fisher Scientific Inc. Rockford, Ill.) using standard protocols.

PvMYB4a [2] = target: T1, PvMYB4a; test: EMSA; 5 mM MgCl2, 50 mM KCl, pH 7.5, 4 C; conditions: tags: N-terminal His (pDEST17), E. coli BL21 DE3; label: biotin
Experimental: PvMYB4a was cloned into the pDEST17 expression vector by the Gateway cloning method (Invitrogen). After sequencing, the plasmid was transformed into BL21 DE3 E. coli competent cells. IPTG was added to induce expression of PvMYB4. The recombinant protein was purified with the MagneHis™ Protein Purification System (Promega Corporation, Madison, Wis.) then concentrated with an Amicon Ultra-15 Centrifugal Filter (Millipore Corporation, Billerica, Mass.). About 700-1000 ng of purified PvMYB4 protein was used for EMSA in each reaction. The probes were labeled by annealing biotin-labeled olignucleotides or PCR products, then purified with a gel extraction kit (QIAGEN). Binding conditions were 12 mM Tris-HCl (pH 7.5), 20 mM NaCl, 50 mM KCl, 5 mM MgCl₂, 1 mM DTT, 0.2 mM EDTA, 2.5% glycerol, 1 mM β-ME, 0.05% NP-40 and 2 fmol biotin-labeled probes. The samples were loaded and run in a 6% DNA retardant gel (Invitrogen) in the cold room after the reactions had been incubated at 4° C. for 30 minutes. The DNA was transferred onto Nylon membranes and signal detected with a LightShift® Chemiluminescent EMSA Kit (Thermo Fisher Scientific Inc. Rockford, Ill.) using standard protocols.

B1: AtGA20ox2 promoter AC-IV (dsDNA)
DNA 1: ATTATAAGAAAGATTAAAAAACCAAACAAATGTACACTAACATGACT
DNA 2: AGTCATGTTAGTGTACATTTGTTTGGTTTTTTAATCTTTCTTATAAT
- binding result (PvMYB4a [1]): no binding

B2: AtGA20ox2 promoter AC-II (dsDNA)
DNA 1: CTTAACTCTTAACTGGTCGAACCAACCATGAATGATTTGGGCATAAT
DNA 2: ATTATGCCCAAATCATTCATGGTTGGTTCGACCAGTTAAGAGTTAAG
- binding result (PvMYB4a [1]): binds

B3: AC-III x3 EMSA probe (dsDNA)
DNA 1: CCAGTCCACCTAACTCTACCTAACTCTACCTAACGCTGTTC
DNA 2: GAACAGCGTTAGGTAGAGTTAGGTAGAGTTAGGTGGACTGG
- binding result (PvMYB4a [2]): binds

B4: AC-IV x3 EMSA probe (dsDNA)
DNA 1: CCAGTCCACCAAACTCTACCAAACTCTACCAAACGCTGTTC
DNA 2: GAACAGCGTTTGGTAGAGTTTGGTAGAGTTTGGTGGACTGG
- binding result (PvMYB4a [2]): no binding

B5: AC-I x3 EMSA probe (dsDNA)
DNA 1: CGGTACCAGTCCACCTACCGCCACCTACCGCCACCTACCGCTGTTCTCGA
DNA 2: TCGAGAACAGCGGTAGGTGGCGGTAGGTGGCGGTAGGTGGACTGGTACCG
- binding result (PvMYB4a [2]): binds

B6: AC-II x3 EMSA probe (dsDNA)
DNA 1: CGGTACCAGTCCACCAACCGCCACCAACCGCCACCAACCGCTGTTCTCGA
DNA 2: TCGAGAACAGCGGTTGGTGGCGGTTGGTGGCGGTTGGTGGACTGGTACCG
- binding result (PvMYB4a [2]): binds
